Source: the supplement of paper PMC5998384

Tests used:
HeLa Kyoto [1] = assay: melting temperature (median over replicates), in situ; higher = more thermally stable
HeLa Kyoto [2] = assay: solubility change mitosis vs G1/S (difference of NP-40 vs SDS log2 ratios) (log2 ratio difference); higher = more soluble in mitosis
HeLa Kyoto [3] = assay: thermal stability score vs G1/S (z-score of summed log2 fold changes over temperatures); higher = more thermally stable than in G1/S
HeLa Kyoto [4] = assay: solubility in G1/S (NP-40 vs SDS abundance) (log2 ratio); higher = more soluble; conditions: cell cycle stage: G1/S
[5] = cell cycle stage: early G1 (4.5 h after nocodazole release)
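Wherever melting temperature (median over replicates), in situ is given: HeLa Kyoto cells synchronized by double thymidine or nocodazole block, proteins quantified by TMT10plex mass spectrometry, three independent biological replicates.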
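Wherever solubility change mitosis vs G1/S (difference of NP-40 vs SDS log2 ratios) is given: synchronized HeLa Kyoto cells (double thymidine block for G1/S, nocodazole release for mitosis), protein amounts in NP-40 versus SDS lysates quantified by mass spectrometry, three biological replicates.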
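Wherever solubility in G1/S (NP-40 vs SDS abundance) is given: HeLa Kyoto cells arrested at G1/S by double thymidine block, proteins quantified by TMT10plex mass spectrometry in mild NP-40 versus SDS extracts, three biological replicates.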
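Wherever thermal stability score vs G1/S (z-score of summed log2 fold changes over temperatures) is given: synchronized HeLa Kyoto cells, proteins quantified by TMT10plex mass spectrometry, three biological replicates, mitosis taken 0.5 h after nocodazole release, G1/S directly after double thymidine block.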

Row | Sequence | melting temperature (HeLa Kyoto [1]; cell cycle stage: G1/S) | melting temperature (HeLa Kyoto [1]; cell cycle stage: mitosis) | solubility change mitosis (log2) (HeLa Kyoto [2]) | thermal stability score (HeLa Kyoto [3]; [5]) | thermal stability score (HeLa Kyoto [3]; cell cycle stage: mitosis) | solubility in G1/S (log2) (HeLa Kyoto [4])
1 | MELGSCLEGGREAAEEEGEPEVKKRRLLCVEFASVASCDAAVAQCFLAENDWEMERALNSYFEPPVEESALERRPETISEPKTYVDLTNEETTDSTTSKISPSEDTQQENGSMFSLITWNIDGLDLNNLSERARGVCSYLALYSPDVIFLQEVIPPYYSYLKKRSSNYEIITGHEEGYFTAIMLKKSRVKLKSQEIIPFPSTKMMRNLLCVHVNVSGNELCLMTSHLESTRGHAAERMNQLKMVLKKMQEAPESATVIFAGDTNLRDREVTRCGGLPNNIVDVWEFLGKPKHCQYTWDTQMNSNLGITAACKLRFDRIFFRAAAEEGHIIPRSLDLLGLEKLDCGRFPSDHWGLLCNLDIIL [TDP2] | 49.7 °C | 51.7 °C | -0.193 | -0.731 | -0.039 | 0.116
2 | MEPVGCCGECRGSSVDPRSTFVLSNLAEVVERVLTFLPAKALLRVACVCRLWRECVRRVLRTHRSVTWISAGLAEAGHLEGHCLVRVVAEELENVRILPHTVLYMADSETFISLEECRGHKRARKRTSMETALALEKLFPKQCQVLGIVTPGIVVTPMGSGSNRPQEIEIGESGFALLFPQIEGIKIQPFHFIKDPKNLTLERHQLTEVGLLDNPELRVVLVFGYNCCKVGASNYLQQVVSTFSDMNIILAGGQVDNLSSLTSEKNPLDIDASGVVGLSFSGHRIQSATVLLNEDVSDEKTAEAAMQRLKAANIPEHNTIGFMFACVGRGFQYYRAKGNVEADAFRKFFPSVPLFGFFGNGEIGCDRIVTGNFILRKCNEVKDDDLFHSYTTIMALIHLGSSK [FBXO22] | 55.1 °C | 53.1 °C | -0.22 | -9.18 | -9.79 | -0.097
3 | MYLVAGDRGLAGCGHLLVSLLGLLLLLARSGTRALVCLPCDESKCEEPRNCPGSIVQGVCGCCYTCASQRNESCGGTFGIYGTCDRGLRCVIRPPLNGDSLTEYEAGVCEDENWTDDQLLGFKPCNENLIAGCNIINGKCECNTIRTCSNPFEFPSQDMCLSALKRIEEEKPDCSKARCEVQFSPRCPEDSVLIEGYAPPGECCPLPSRCVCNPAGCLRKVCQPGNLNILVSKASGKPGECCDLYECKPVFGVDCRTVECPPVQQTACPPDSYETQVRLTADGCCTLPTRCECLSGLCGFPVCEVGSTPRIVSRGDGTPGKCCDVFECVNDTKPACVFNNVEYYDGDMFRMDNCRFCRCQGGVAICFTAQCGEINCERYYVPEGECCPVCEDPVYPFNNPAGCYANGLILAHGDRWREDDCTFCQCVNGERHCVATVCGQTCTNPVKVPGECCPVCEEPTIITVDPPACGELSNCTLTGKDCINGFKRDHNGCRTCQCINTEELCSERKQGCTLNCPFGFLTDAQNCEICECRPRPKKCRPIICDKYCPLGLLKNKHGCDICRCKKCPELSCSKICPLGFQQDSHGCLICKCREASASAGPPILSGTCLTVDGHHHKNEESWHDGCRECYCLNGREMCALITCPVPACGNPTIHPGQCCPSCADDFVVQKPELSTPSICHAPGGEYFVEGETWNIDSCTQCTCHSGRVLCETEVCPPLLCQNPSRTQDSCCPQCTDQPFRPSLSRNNSVPNYCKNDEGDIFLAAESWKPDVCTSCICIDSVISCFSESCPSVSCERPVLRKGQCCPYCIEDTIPKKVVCHFSGKAYADEERWDLDSCTHCYCLQGQTLCSTVSCPPLPCVEPINVEGSCCPMCPEMYVPEPTNIPIEKTNHRGEVDLEVPLWPTPSENDIVHLPRDMGHLQVDYRDNRLHPSEDSSLDSIASVVVPIIICLSIIIAFLFINQKKQWIPLLCWYRTPTKPSSLNNQLVSVDCKKGTRVQVDSSQRMLRIAEPDARFSGFYSMQKQNHLQADNFYQTV [CRIM1] | 53.8 °C | 54.9 °C | -0.0635 | -2.44 | -0.713 | -0.0525
4 | MKMTVDFEECLKDSPRFRAALEEVEGDVAELELKLDKLVKLCIAMIDTGKAFCVANKQFMNGIRDLAQYSSNDAVVETSLTKFSDSLQEMINFHTILFDQTQRSIKAQLQNFVKEDLRKFKDAKKQFEKVSEEKENALVKNAQVQRNKQHEVEEATNILTATRKCFRHIALDYVLQINVLQSKRRSEILKSMLSFMYAHLAFFHQGYDLFSELGPYMKDLGAQLDRLVVDAAKEKREMEQKHSTIQQKDFSSDDSKLEYNVDAANGIVMEGYLFKRASNAFKTWNRRWFSIQNNQLVYQKKFKDNPTVVVEDLRLCTVKHCEDIERRFCFEVVSPTKSCMLQADSEKLRQAWIKAVQTSIATAYREKGDESEKLDKKSSPSTGSLDSGNESKEKLLKGESALQRVQCIPGNASCCDCGLADPRWASINLGITLCIECSGIHRSLGVHFSKVRSLTLDTWEPELLKLMCELGNDVINRVYEANVEKMGIKKPQPGQRQEKEAYIRAKYVERKFVDKYSISLSPPEQQKKFVSKSSEEKRLSISKFGPGDQVRASAQSSVRSNDSGIQQSSDDGRESLPSTVSANSLYEPEGERQDSSMFLDSKHLNPGLQLYRASYEKNLPKMAEALAHGADVNWANSEENKATPLIQAVLGGSLVTCEFLLQNGANVNQRDVQGRGPLHHATVLGHTGQVCLFLKRGANQHATDEEGKDPLSIAVEAANADIVTLLRLARMNEEMRESEGLYGQPGDETYQDIFRDFSQMASNNPEKLNRFQQDSQKF [ACAP2] | 49.8 °C | – | -0.215 | 0.348 | 0.369 | -0.0242
5 | MLWFQGAIPAAIATAKRSGAVFVVFVAGDDEQSTQMAASWEDDKVTEASSNSFVAIKIDTKSEACLQFSQIYPVVCVPSSFFIGDSGIPLEVIAGSVSADELVTRIHKVRQMHLLKSETSVANGSQSESSVSTPSASFEPNNTCENSQSRNAELCEIPPTSDTKSDTATGGESAGHATSSQEPSGCSDQRPAEDLNIRVERLTKKLEERREEKRKEEEQREIKKEIERRKTGKEMLDYKRKQEEELTKRMLEERNREKAEDRAARERIKQQIALDRAERAARFAKTKEEVEAAKAAALLAKQAEMEVKRESYARERSTVARIQFRLPDGSSFTNQFPSDAPLEEARQFAAQTVGNTYGNFSLATMFPRREFTKEDYKKKLLDLELAPSASVVLLPAGRPTASIVHSSSGDIWTLLGTVLYPFLAIWRLISNFLFSNPPPTQTSVRVTSSEPPNPASSSKSEKREPVRKRVLEKRGDDFKKEGKIYRLRTQDDGEDENNTWNGNSTQQM [UBXN4] | 51.8 °C | 52.1 °C | -0.108 | -0.0363 | 0.462 | -0.0609
6 | MAPDSDPFPEGPLLKLLPLDARDRGTQRCRLGPAALHALGARLGSAVKISLPDGGSCLCTAWPRRDGADGFVQLDPLCASPGAAVGASRSRRSLSLNRLLLVPCPPLRRVAVWPVLRERAGAPGARNTAAVLEAAQELLRNRPISLGHVVVAPPGAPGLVAALHIVGGTPSPDPAGLVTPRTRVSLGGEPPSEAQPQPEVPLGGLSEAADSLRELLRLPLRYPRALTALGLAVPRGVLLAGPPGVGKTQLVRAVAREAGAELLAVSAPALQGSRPGETEENVRRVFQRARELASRGPSLLFLDEMDALCPQRGSRAPESRVVAQVLTLLDGASGDREVVVVGATNRPDALDPALRRPGRFDREVVIGTPTLKQRKEILQVITSKMPISSHVDLGLLAEMTVGYVGADLTALCREAAMHALLHSEKNQDNPVIDEIDFLEAFKNIQPSSFRSVIGLMDIKPVDWEEIGGLEDVKLKLKQSIEWPLKFPWEFVRMGLTQPKGVLLYGPPGCAKTTLVRALATSCHCSFVSVSGADLFSPFVGDSEKVLSQIFRQARASTPAILFLDEIDSILGARSASKTGCDVQERVLSVLLNELDGVGLKTIERRGSKSSQQEFQEVFNRSVMIIAATNRPDVLDTALLRPGRLDKIIYIPPPDHKGRLSILKVCTKTMPIGPDVSLENLAAETCFFSGADLRNLCTEAALLALQENGLDATTVKQEHFLKSLKTVKPSLSCKDLALYENLFKKEGFSNVEGI [SPATA5L1] | 52.8 °C | 51.2 °C | 0.095 | -0.664 | -2.04 | -0.0544
